Laboratory results: publication PMC3001329 (Investigative ophthalmology & visual science, 2009)

Molecular target: the molecule itself
Experiment: SEC-MALS

B1: recombinant bovine αA-crystallin Y118D mutant (natural protein)
chain: MDIAIQHPWFKRTLGPFYPSRLFDQFFGEGLFEYDLLPFLSSTISPYYRQSLFRTVLDSGISEVRSDRDKFVIFLDVKHFSPEDLTVKVQEDFVEIHGKHNERQDDHGYISREFHRRDRLPSNVDQSALSCSLSADGMLTFSGPKIPSGVDAGHSERAIPVSREEKPSSAPSS
B1 was tested, and the “stoichiometry N” value was 75 subunits.
